Assays:
[1] = pH profile of galactanase activity on lupin AZCL-galactan; assay type: biochemical; details: 15 min at 37° C., A590, unit assumed
Experimental: The pH profiles of the purified variants described above were established as follows: Galactanase activity at various pH was measured by mixing 500 μl 4 mg/ml lupin AZCL-galactan (Megazyme, Australia) in water with 500 μl buffer (50 mM sodium acetate, 50 mM potassium dihydrogenphosphate, 50 mM boric acid, 1 mM CaCl2, 0.01% Triton X-100 adjusted to pH 2.5, 3.5, 4.5, 5.5, 6.5, 7.5, 8.5 or 9.5 with HCl/NaOH) and 25 μl purified enzyme diluted to about 0.5-2 μg/ml in water. The mixture was incubated 15 min at 37° C., insoluble material was removed by centrifugation, and absorbance in the supernatant was measured at 590 nm.

[2] = Activity on galactotriose (Gal3); assay type: biochemical; details: up to 24 hours; buffer, pH and temperature per enzyme
Experimental: (§1) The activity on the galacto-oligosaccharide substrates prepared as described above and on the commercially available galactobiose (Gal2, Megazyme) was studied for the four purified galactanases HIGAL, MTGAL, AAGAL and BLGAL. The buffers and temperatures used were: 25 mM sodium acetate, 0.5 mM CaCl2, 0.005% Triton X-100, pH 6.5 at 37° C. for HIGAL and MTGAL, 50 mM sodium acetate, 1 mM CaCl2, pH 4 at 30° C. for AAGAL and 50 mM Mes, 1 mM CaCl2, pH 6.5 at 30° C. for BLGAL. Enzyme concentrations used were 0.8 μg/ml for HIGAL, 0.2 microgram/ml for MTGAL, and 10 micrograms/ml for AAGAL and BLGAL. With HIGAL and MTGAL substrate concentrations were all 0.25 mg/ml, whereas 0.34 mg/ml Gal2, 0.050 mg/ml Gal3 and 0.067 mg/ml Gal4 were used for AAGAL and BLGAL. Enzyme activity in samples withdrawn after various incubation times was inactivated by heating to 95° C. for 10 min. Compositions of reaction products were analysed using HPAE-PAD (Dionex) applying a PA-100 column and a linear gradient of sodium acetate (0-0.18 M) in 0.15 M NaOH. Response factors of the individual carbohydrates were estimated from reference runs with MeGal3, MeGal4, Gal, Gal2, Gal3 and Gal4. Selected results are shown in Tables 2-8 below (the figures indicating weight percentage of glactooligosaccharides).

[3] = assay type: biochemical
Experimental: as §1

[4] = Activity on galactobiose (Gal2); assay type: biochemical; details: in 24 hours; buffer, pH and temperature per enzyme
Experimental: as §1

[5] = Activity on galactan, products by HPAEC-PAD; assay type: biochemical; details: 30° C.; BLGAL pH 6.5, AAGAL pH 4.0
Experimental: Lupin galactan (Megazyme) was incubated with BLGAL (0.1-10 micrograms/ml) at pH 6.5 (50 mM MES, 1 mM CaCl2) and with AAGAL (0.1-10 μg/ml) at pH 4.0 (50 mM sodium acetate, 1 mM CaCl2) at 30° C. Samples were withdrawn after 45 min to 24 hours and enzyme inactivated by heating to 95° C. for 10 min. Reaction products were analyzed using HPAEC-PAD on a Dionex chromatographic system using a CarboPac PA-100 column and a linear gradient 0 to 0.3 M sodium acetate in 0.15 M NaOH. Purified galacto-oligosaccharides were used to identify products.

[6] = Degradation of MeGal4, products by HPAE-PAD; assay type: biochemical; details: in words; buffer, pH and temperature per enzyme
Experimental: as §1

B1: AAGAL: GH Family 53 galactanase from Aspergillus aculeatus, SEQ ID NO: 3 (wild type parent) (protein, listed as Aspergillus aculeatus)
chain: ALTYRGADISSLLLLEDEGYSYKNLNGQTQALETILADAGINSIRQRVWVNPSDGSYDLDYNLELAKRVKAAGMSLYLDLHLSDTWADPSDQTTPSGWSTTDLGTLKWQLYNYTLEVCNTFAENDIDIEIISIGNEIRAGLLWPLGETSSYSNIGALLHSGAWGVKDSNLATTPKIMIHLDDGWSWDQQNYFYETVLATGELLSTDFDYFGVSYYPFYSASATLASLKTSLANLQSTYDKPVVVVETNWPVSCPNPAYAFPSDLSSIPFSVAGQQEFLEKLAAVVEATTDGLGVYYWEPAWIGNAGLGSSCADNLMVDYTTDEVYESIETLGEL
modifications: mat_peptide (1)..()
[1]; pH 2.5
  Galactanase activity at pH 2.5: 73%
[1]; pH 3.5
  Galactanase activity at pH 3.5: 100%
[1]; pH 4.5
  Galactanase activity at pH 4.5: 83%
[1]; pH 5.5
  Galactanase activity at pH 5.5: 47%
[1]; pH 6.5
  Galactanase activity at pH 6.5: 32%
[1]; pH 7.5
  Galactanase activity at pH 7.5: 0%
[1]; pH 8.5
  Galactanase activity at pH 8.5: 2%
[1]; pH 9.5
  Galactanase activity at pH 9.5: 0%
[2]
  Activity on Gal3, products: degraded Gal3 to Gal2 and Gal
[3]
  Products of Gal4 (galactotetraose) degradation: about equimolar amounts of galactose, galactobiose and galactotriose
[4]
  Activity on Gal2: Neither of the enzymes HIGAL, MTGAL, AAGAL or BLGAL had any detectable activity
[5]
  Initial products from lupin galactan: initially produces a more homogeneous mixture of galactooligomers

B2: BLGAL: GH Family 53 galactanase from Bacillus licheniformis, SEQ ID NO: 4 (wild type parent) (protein, listed as Bacillus licheniformis)
chain: AHRDSGTAKSGLYVEKVSGLRKDFIKGVDVSSIIALEESGVAFYNESGKKQDIFNTLKEAGVNYVRVRIWNDPYDANGNGYGGGNNDLEKAIQIGKRANANGMKLLADFHYSDFWADPAKQKAPKAWANLNFEDKKTALYQYTKQSLKAMKAAGIDIGMVQVGNETNGGLAGETDWAKMSQLFNAGSQAVRETDSNILVALHFTNPETSGRYAWIAETLHRHHVDYDVFASSYYPFWHGTLKNLTSVLTSVADTYGKKVMVAETSYTYTAEDGDGHGNTAPKNGQTLNNPVTVQGQANAVRDVIQAVSDVGEAGIGVFYWEPAWIPVGPAHRLEKNKALWETYGSGWATSYAAEYDPEDAGKWFGGSAVDNQALFDFKGRPLPSLHVFQYVDTGTPFKN
[2]
  Activity on Gal3, products: no visible activity on Gal3 after 24 hours
[6]
  Products from MeGal4: MeGal and Gal3
[3]
  Products of Gal4 (galactotetraose) degradation: degrades galactotetraose mainly to galactose and galactotriose
[4]
  Activity on Gal2: Neither of the enzymes HIGAL, MTGAL, AAGAL or BLGAL had any detectable activity
[5]
  Initial products from lupin galactan: initial main product is galactotetraose with both smaller and larger oligomers also present
